Data as given in US20160369264A1 (HOWARD HUGHES MEDICAL INSTITUTE, published 2016).
Residue numbers refer to the chain shown, from its start. Names and notes keep the numbering of the source.

B1: p6_9 (designed binder, not shown: small tags and cut ends)
chain: MGFQGPLGSHMTISPKEKEKIAIHEAGHDLMGLVSDDDDKVHKISIIPRGMALGVTQQLPIEDKHIYDKKDLYNKILVLLGGRAAEEVFFGKDGITTGAENDLQRATDLAYRMVSMWGMSDKVGPIAIRRVANPFLGGMTTAVDTSPDLLREIDEEVKRIITEQYEKAKAIVEEYKLPLKFVVAALLESETILCSLFAEVFKTFGIELKDKCKKEELFDKDRKSEENKELKSEEVKEEVV
notes: Alpha helical hexamer (C6), layer group P 6; Carries A29D from gene synthesis; also called Original Design p6_9 (Control); precursor to p6_9H
B2: p6_9 E199L (designed binder, not shown: small tags and cut ends)
chain: B1 chain with E199L
B3: p6_9HM (designed binder, not shown: small tags and cut ends)
chain: B1 chain with E188H, V200M
notes: p6_9H (which already carries E188H) with V200M; also called E188H, V200M (p6_9HM)
B4: p6_9 T203V (designed binder, not shown: small tags and cut ends)
chain: B1 chain with T203V
B5: p6_9H (designed binder, not shown: small tags and cut ends)
chain: B1 chain with E188H
notes: Hexamer (C6), layer group P 6; also called E188H (p6_9H)
B6: p6_9 E188H, F218Y (designed binder, not shown: small tags and cut ends)
chain: B1 chain with E188H, F218Y
notes: p6_9H (which already carries E188H) with F218Y
B7: p6_9 E188R (designed binder, not shown: small tags and cut ends)
chain: B1 chain with E188R
B8: p6_9 L193T, A198V, S189K (designed binder, not shown: small tags and cut ends)
chain: B1 chain with S189K, L193T, A198V
B9: p6_9 L193T, A198V, S189K, cut 6xHis (designed binder)
chain: B1 chain with S189K, L193T, A198V
B10: p6_9 E188H, D29A (designed binder, not shown: small tags and cut ends)
chain: B1 chain with D29A, E188H
notes: p6_9H with the gene-synthesis mutation A29D reverted
B11: p6_9 L193T (designed binder, not shown: small tags and cut ends)
chain: B1 chain with L193T
B12: p6_9 L193T, S189K (designed binder, not shown: small tags and cut ends)
chain: B1 chain with S189K, L193T
B13: p6_9 E188H, L193T, A198V (designed binder, not shown: small tags and cut ends)
chain: B1 chain with E188H, L193T, A198V
notes: p6_9H (which already carries E188H) with L193T and A198V
B14: p6_9 A184S (designed binder, not shown: small tags and cut ends)
chain: B1 chain with A184S
B15: p6_9 L193T, A198V (designed binder, not shown: small tags and cut ends)
chain: B1 chain with L193T, A198V
B16: p6_9 E188H, cut 6xHis (designed binder)
chain: B1 chain with E188H
notes: p6_9H with the 6xHis tag removed
B17: p6_9H_KDKCKXX (designed binder)
chain: MGFQGPLGSHMTISPKEKEKIAIHEAGHDLMGLVSDDDDKVHKISIIPRGMALGVTQQLPIEDKHIYDKKDLYNKILVLLGGRAAEEVFFGKDGITTGAENDLQRATDLAYRMVSMWGMSDKVGPIAIRRVANPFLGGMTTAVDTSPDLLREIDEEVKRIITEQYEKAKAIVEEYKLPLKFVVAALLHSETILCSLFAEVFKTFGIELKDKCK
notes: p6_9H with 33 C-terminal residues (including 6xHis) removed
B18: p3Z-42 TDRD2 fusion (designed binder)
chain: MGSRSLQLDKLVNEMTQHYENSVPEDLTVHVGDIVAAPLPTNGSWYRARVLGTLENGNLDLYFVDFGDNGDCPLKDLRALRSDFLSLPFQAIECSGSGSGGMHNNRLQLSRLERVYQSEQAEKLLLAGVMLRDPARFDLRGSLTHGRDVEIDTNVIIEGNVSLGNRVKIGTGCVIKNSAIGDDCEISPYTVVEDAVLAAACTIGPFARLRPGAVLLEGAHVGNFVEMKKAVLGKGSKAGHLTYLGDAAIGDNVNIGAGTITCNYDGANKFTTIIGDDVFVGSDTQLVAPVSVGKGATIAAGTTVTRNVGANALAISRVPQTQKEGWRRPVKKK
B19: p4Z_9 (designed binder)
chain: MEAVRAYELQLELQQIRTLRQSLELKAKELEYAAGIITSLKSERRIYRAFSDLLVEITKLEAIEHIARSIIVYVREIAKLAKRETEIMEELSKLRAPLSLE
notes: Designed self-assembling protein; tetramer (C4) that packs into a P 4 21 2 lattice; also called design p4Z_9
B20: p3Z_42 (designed binder)
chain: MHNNRLQLSRLERVYQSEQAEKLLLAGVMLRDPARFDLRGSLTHGRDVEIDTNVIIEGNVSLGNRVKIGTGCVIKNSAIGDDCEISPYTVVEDAVLAAACTIGPFARLRPGAVLLEGAHVGNFVEMKKAVLGKGSKAGHLTYLGDAAIGDNVNIGAGTITCNYDGANKFTTIIGDDVFVGSDTQLVAPVSVGKGATIAAGTTVTRNVGANALAISRVPQTQKEGWRRPVKKKLE
notes: Designed self-assembling protein; beta-helix trimer (C3) that packs into a P 3 2 1 lattice; Expressed from pet29b in E. coli or with a cell-free kit; also called design p3Z_42
B21: p3Z_11 (designed binder)
chain: MEEVVLITVPSESVARIIAKALVASRLAACVNIVPGLTSIYRWQGSVVEDQELLLLVKTTTHAFPKLKHTVKIIHPYTVPEIVALPIAEGNREYLDWLRENTGLE
notes: Designed self-assembling protein; Expressed from pet29b in E. coli; also called design p3Z_11
B22: p3Z-42 Ferrodoxin fusion (designed binder)
chain: MLTVEVEVKITADDENKAEEIVKRVIDEVEREVQKQYPNATITRTLTRDDGTVELRIKVKADTEEKAKSIIKLIEERIEEELRKRDPNATITRTVRTEVGSSWSGSGSGGMHNNRLQLSRLERVYQSEQAEKLLLAGVMLRDPARFDLRGSLTHGRDVEIDTNVIIEGNVSLGNRVKIGTGCVIKNSAIGDDCEISPYTVVEDAVLAAACTIGPFARLRPGAVLLEGAHVGNFVEMKKAVLGKGSKAGHLTYLGDAAIGDNVNIGAGTITCNYDGANKFTTIIGDDVFVGSDTQLVAPVSVGKGATIAAGTTVTRNVGANALAISRVPQTQKEGWRRPVKKK
B23: p3Z-42 Human Glutaredoxin fusion (designed binder)
chain: MGAGTAQEFVNCKIQPGKVVVFIKPTCPYCRRAQEILSQLPIKQGLLEFVDITATNHTNEIQDYLQQLTGARTVPRVFIGKDCIGGCSDLVSLQQSGELLTRLKQIGALQGSGSGGMHNNRLQLSRLERVYQSEQAEKLLLAGVMLRDPARFDLRGSLTHGRDVEIDTNVIIEGNVSLGNRVKIGTGCVIKNSAIGDDCEISPYTVVEDAVLAAACTIGPFARLRPGAVLLEGAHVGNFVEMKKAVLGKGSKAGHLTYLGDAAIGDNVNIGAGTITCNYDGANKFTTIIGDDVFVGSDTQLVAPVSVGKGATIAAGTTVTRNVGANALAISRVPQTQKEGWRRPVKKK
B24: p3Z-42 Human Acylphosphatase fusion (designed binder)
chain: MAEGNTLISVDYEIFGKVQGVFFRKHTQAEGKKLGLVGWVQNTDRGTVQGQLQGPISKVRHMQEWLETRGSPKSHIDKANFNNEKVILKLDYSDFQIVKGSGSGSGGMHNNRLQLSRLERVYQSEQAEKLLLAGVMLRDPARFDLRGSLTHGRDVEIDTNVIIEGNVSLGNRVKIGTGCVIKNSAIGDDCEISPYTVVEDAVLAAACTIGPFARLRPGAVLLEGAHVGNFVEMKKAVLGKGSKAGHLTYLGDAAIGDNVNIGAGTITCNYDGANKFTTIIGDDVFVGSDTQLVAPVSVGKGATIAAGTTVTRNVGANALAISRVPQTQKEGWRRPVKKK

Target: the molecule itself
Assay: sizes of crystals observed in the pellet; negative-stain EM (self-assembly)

Protein	binding result
B1	binds
B2	binds
B3	binds
B4	binds
B5	binds
B6	binds
B7	binds
B8	binds
B9	binds
B10	binds
B11	binds
B12	binds
B13	binds
B14	binds
B15	binds
B16	binds
B17	binds

Target: the molecule itself
Assay: self-assembly of fusion trimers; negative-stain EM

Protein	binding result
B18	binds

Target: the molecule itself
Assay: self-assembly of tetramers; negative-stain EM of E. coli pellet

Protein	binding result
B19	binds

Target: the molecule itself
Assay: self-assembly of trimers; cell-free expression, negative-stain EM
Method: (A) Design p3Z_42 expressed using an in vitro expression kit. This negative-stain micrograph was made 4 hours after adding pure plasmid DNA of p3Z_42 to the kit components without purification. A Fourier transform is shown from a crystal in the micrograph showing the same P 3 2 1 lattice as visualized in p3Z_42 E. coli expression. (B) Fast dilution re-folded p4Z_9 protein. Large arrays form analogous to those seen from E. coli expressed protein. A Fourier transform is shown highlighting the square lattice. (C) Dialysis re-folded p4Z_9 protein. Large fibrous structures form with the same square array pattern as in E. coli expressed proteins. Fourier transform is shown highlighting the square repeat pattern. (D) Purified and concentrated protein from p6_9H soluble fractions. Arrays were not visualized at this point. […] (E) p6_9H array formation from material as in (d). These arrays formed after further concentration of protein as in (d) and heat application in a water bath. […] Fourier transform is shown with the same P 6 arrangement seen in the pellet sample. Scale bars=50 nm.

Protein	binding result
B20	binds

Target: the molecule itself
Assay: self-assembly of trimers; negative-stain EM of E. coli pellet

Protein	binding result
B21	binds

Target: the molecule itself
Assay: self-assembly of fusion trimers; negative-stain TEM of E. coli pellet
Method: (§1) Synthetic genes of each fusion were obtained and protein was expressed in Escherichia coli cells using a standard T7 based expression vector (Table 2). The protein expression was verified by sodium dodecyl sulfate polyacrylamide gel electrophoresis (SDS-PAGE) after separation of the soluble and insoluble cell portions. Samples of observed protein in the cellular pellets were analyzed for array formation by negative-stain Transmission Electron Microscopy (TEM). […] It is worth noting that 5/7 of the remaining fusions either shared a similar sequence and unknown but potentially similar structures (2 unpublished binding proteins) or were either the same molecular weight or much larger than the p3Z-42 monomer protein (3 proteins between ˜25-35 kDa).

Protein	binding result
B22	binds

Target: the molecule itself
Assay: self-assembly of fusion trimers; negative-stain EM of E. coli pellet
Method: as §1
On the basis of these initial hits, the general properties of the proteins that crystallized, specifically molecular weight, were evaluated. 16 further fusions were identified based either on smaller molecular weight sizes (13 proteins between 9 and 13 kDa) or other important targets close to this molecular weight range (3 proteins between 14 and 17 kDa). These second screen fusions were genetically fused and checked for array formation as before. […]

Protein	binding result
B23	binds
B24	binds
